# Test results as given in US20260242478A1 (published 2026).
# Like-named read-outs stand apart in the source and are kept apart here. Where no end group is shown, it is not given here.
# T1: Peptide-274 (cysteine pairing not given here; also: biotinylated, site not given here)
# T1 peptide: ITPVCKPLWMCSGL
# T2: Peptide-239 (cysteine pairing not given here; also: biotinylated, site not given here)
# T2 peptide: IDIRCTPIWMCVGF
# T3: Peptide-284 (cysteine pairing not given here; also: biotinylated (site not given here))
# T3 peptide: TEVRCTPPWMCLGF
# T4: Peptide-227 (cysteine pairing not given here; also: biotinylated, site not given here)
# T4 peptide: LDNWCKPSWMCTGF
# T5: Peptide-233 (cysteine pairing not given here; also: biotinylated, site not given here)
# T5 peptide: GEKWCIPDWMCSGF
# T6: Peptide-225 (cysteine pairing not given here; also: biotinylated, site not given here)
# T6 peptide: IPKSCIPSWMCTGF
# T7: Peptide-267 (cysteine pairing not given here; also: biotinylated, site not given here)
# T7 peptide: FTNYCVPSWMCTGF
# T8: Peptide-219 (cysteine pairing not given here; also: biotinylated, site not given here)
# T8 peptide: HVKLCKPAWMCQGL
# T9: Peptide-271 (cysteine pairing not given here; also: biotinylated, site not given here)
# T9 peptide: EDILCKPKWMCEGF
# T10: Peptide-268 (cysteine pairing not given here; also: biotinylated, site not given here)
# T10 peptide: VEKVCKPVWMCVGF
# T11: Peptide-232 (cysteine pairing not given here; also: biotinylated, site not given here)
# T11 peptide: LDKWCVPKWMCSGL
# T12: Peptide-235 (cysteine pairing not given here; also: biotinylated, site not given here)
# T12 peptide: VEKLCTPIWMCLGF
# T13: Peptide-277 (cysteine pairing not given here; also: biotinylated (site not given here))
# T13 peptide: VVIKCKPEWMCSGF
# T14: Peptide-283 (cysteine pairing not given here; also: biotinylated (site not given here))
# T14 peptide: TVAYCKPAWMCQGF
# T15: Peptide-285 (cysteine pairing not given here; also: biotinylated (site not given here))
# T15 peptide: VERLCTPAWMCHGF
# T16: Peptide-282 (cysteine pairing not given here; also: biotinylated (site not given here))
# T16 peptide: IVVKCVPSWMCEGF
# T17: Peptide-230 (cysteine pairing not given here; also: biotinylated, site not given here)
# T17 peptide: VTKWCIPPWMCEVT
# T18: Peptide-270 (cysteine pairing not given here; also: biotinylated, site not given here)
# T18 peptide: ESRLCVPAWMCAGF
# T19: Peptide-263 (cysteine pairing not given here; also: biotinylated, site not given here)
# T19 peptide: AVKACIPEWMCIGF
# T20: Peptide-286 (cysteine pairing not given here; also: biotinylated (site not given here))
# T20 peptide: VLKYCIPDWMCAGI
# T21: Peptide-236 (cysteine pairing not given here; also: biotinylated, site not given here)
# T21 peptide: DVKLCKPEWMCYGL
# T22: Peptide-181 (cysteine pairing not given here; also: biotinylated (site not given here))
# T22 construct: PSMA peptide mask (P2)
# T22 peptide: PELRCVPFWMCSFN
# T23: Peptide-180 (cysteine pairing not given here; also: biotinylated (site not given here))
# T23 construct: PSMA peptide mask (P2)
# T23 peptide: IAVLCQPNWMCAGF
# T24: Peptide-179 (cysteine pairing not given here; also: biotinylated (site not given here))
# T24 construct: PSMA peptide mask (P2)
# T24 peptide: LMKWCTPRWMCAAE
# T25: Peptide-194 (cysteine pairing not given here; also: biotinylated (site not given here))
# T25 construct: PSMA peptide mask (P2)
# T25 peptide: SKLLCVPPWMCYHV
# T26: Peptide-205 (cysteine pairing not given here; also: biotinylated (site not given here))
# T26 construct: PSMA peptide mask (P2)
# T26 peptide: MCQWDKINYWMDCD
# T27: Peptide-202 (cysteine pairing not given here; also: biotinylated (site not given here))
# T27 construct: PSMA peptide mask (P2)
# T27 peptide: MCQWDELNYWMDCD
# T28: Peptide-204 (cysteine pairing not given here; also: biotinylated (site not given here))
# T28 construct: PSMA peptide mask (P2)
# T28 peptide: QCTWNEKTWWMECE
# B1: Phage-1705 (clonal phage displaying a Peptide-92 library peptide, SEQ ID NO: 2001) (peptide)
# peptide: SCGGGFHYSWPLCF
# modifications: cysteine pairing not given here; also: displayed as fusion to phage pIII, linker and order of fusion not given here
# notes: not shown: pIII filament protein of the bacteriophage to which the peptide is fused
# B2: PSMA Fab (SEQ ID NOs: 19, 20) (Fab, V domains shown)
# VH: QVQLVESGGGVVQPGRSLRLSCAASGFAFSRYGMHWVRQAPGKGLEWVAVIWYDGSNKYYADSVKGRFTISRDNSKNTQYLQMNSLRAEDTAVYYCARGGDFLYYYYYGMDVWGQGTTVTVSS
# VL: DIQMTQSPSSLSASVGDRVTITCRASQGISNYLAWYQQKTGKVPKFLIYEASTLQSGVPSRFSGGGSGTDFTLTISSLQPEDVATYYCQNYNSAPFTFGPGTKVDIKR
# notes: also called 006 PSMA Fab; anti-PSMA Fab
# B3: PSMA Fab (SEQ ID NOs: 19, 20) (Fab, V domains shown)
# VH: QVQLVESGGGVVQPGRSLRLSCAASGFAFSRYGMHWVRQAPGKGLEWVAVIWYDGSNKYYADSVKGRFTISRDNSKNTQYLQMNSLRAEDTAVYYCARGGDFLYYYYYGMDVWGQGTTVTVSS
# VL: DIQMTQSPSSLSASVGDRVTITCRASQGISNYLAWYQQKTGKVPKFLIYEASTLQSGVPSRFSGGGSGTDFTLTISSLQPEDVATYYCQNYNSAPFTFGPGTKVDIKR
# notes: as for B2
# B4: Peptide-41 (peptide)
# peptide: MDWCPRDLWVHCFA
# modifications: cysteine pairing not given here; also: biotinylated, site not given here
# notes: CD28 peptide mask
# B5: Peptide-175 (peptide)
# peptide: HCKFHDYHSWYMCY
# modifications: cysteine pairing not given here; also: biotinylated (site not given here)
# notes: PSMA peptide mask (P2)
# B6: Peptide-178 (peptide)
# peptide: PDCVYHSFWGYSCR
# modifications: cysteine pairing not given here; also: biotinylated (site not given here)
# notes: PSMA peptide mask (P2)
# B7: Phage-1706 (clonal phage displaying a Peptide-92 library peptide, SEQ ID NO: 2002) (peptide)
# peptide: GCAAGFHYTLSTCL
# modifications: cysteine pairing not given here; also: displayed as fusion to phage pIII, linker and order of fusion not given here
# notes: as for B1
# B8: Peptide-71 (peptide)
# peptide: IDWCPRYLWDECYN
# modifications: cysteine pairing not given here; also: biotinylated, site not given here
# notes: CD28 peptide mask
# B9: Phage-1704 (clonal phage displaying a Peptide-92 library peptide, SEQ ID NO: 2000) (peptide)
# peptide: SCAAGAGYGWPQCL
# modifications: cysteine pairing not given here; also: displayed as fusion to phage pIII, linker and order of fusion not given here
# notes: as for B1
# Key:
# [1] = target: T29, Anti-CD28 Fab (SEQ ID NOs: 696, 697); assay: phage binding ELISA; biotinylated anti-CD28 Fab on neutravidin plate, clonal phage supernatant, anti-M13 HRP detection;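 also: wells pretreated with blocking buffer, either plus or minus CD28 antigen, then given crude phage supernatant briefly without washing in between, then washed before anti-M13 HRP readout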
# T29 construct: Biotinylated and captured on neutravidin coated plates in the panning ELISA
# [2] = target: T29, Anti-CD28 Fab (SEQ ID NOs: 696, 697); assay: phage binding ELISA; anti-CD28 Fab on plate pre-incubated with CD28 antigen as competitor, anti-M13 HRP detection
# Peptide-274 = target: T1, Peptide-274; assay: BLI, biotinylated peptide on sensor
# Peptide-239 = target: T2, Peptide-239; assay: BLI, biotinylated peptide on sensor
# Peptide-284 = target: T3, Peptide-284; assay: BLI, biotinylated peptide on sensor
# Peptide-227 = target: T4, Peptide-227; assay: BLI, biotinylated peptide on sensor
# Peptide-233 = target: T5, Peptide-233; assay: BLI, biotinylated peptide on sensor
# Peptide-225 = target: T6, Peptide-225; assay: BLI, biotinylated peptide on sensor
# Peptide-267 = target: T7, Peptide-267; assay: BLI, biotinylated peptide on sensor
# Peptide-219 = target: T8, Peptide-219; assay: BLI, biotinylated peptide on sensor
# Peptide-271 = target: T9, Peptide-271; assay: BLI, biotinylated peptide on sensor
# Peptide-268 = target: T10, Peptide-268; assay: BLI, biotinylated peptide on sensor
# Peptide-232 = target: T11, Peptide-232; assay: BLI, biotinylated peptide on sensor
# Peptide-235 = target: T12, Peptide-235; assay: BLI, biotinylated peptide on sensor
# Peptide-277 = target: T13, Peptide-277; assay: BLI, biotinylated peptide on sensor
# Peptide-283 = target: T14, Peptide-283; assay: BLI, biotinylated peptide on sensor
# Peptide-285 = target: T15, Peptide-285; assay: BLI, biotinylated peptide on sensor
# Peptide-282 = target: T16, Peptide-282; assay: BLI, biotinylated peptide on sensor
# Peptide-230 = target: T17, Peptide-230; assay: BLI, biotinylated peptide on sensor
# Peptide-270 = target: T18, Peptide-270; assay: BLI, biotinylated peptide on sensor
# Peptide-263 = target: T19, Peptide-263; assay: BLI, biotinylated peptide on sensor
# Peptide-286 = target: T20, Peptide-286; assay: BLI, biotinylated peptide on sensor
# Peptide-236 = target: T21, Peptide-236; assay: BLI, biotinylated peptide on sensor
# Peptide-181 = target: T22, Peptide-181; assay: ELISA, biotinylated peptide captured on neutravidin, PSMA Fab titrated
# Peptide-180 [3] = target: T23, Peptide-180; assay: as above
# Peptide-179 [4] = target: T24, Peptide-179; assay: as above
# Peptide-179 [5] = target: T24, Peptide-179; assay: as above
# Peptide-194 = target: T25, Peptide-194; assay: BLI (Octet), biotinylated peptide on streptavidin sensor, PSMA Fab titrated, 1:1 model
# Peptide-205 = target: T26, Peptide-205; assay: as above
# Peptide-180 [6] = target: T23, Peptide-180; assay: as above
# Peptide-179 [7] = target: T24, Peptide-179; assay: as above
# Peptide-202 = target: T27, Peptide-202; assay: as above
# Peptide-204 = target: T28, Peptide-204; assay: as above
# Ab-15 [8] = assay: BLI (Octet): sensor loaded with 200 nM biotinylated peptide, 100 nM Ab-15;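 as to t1/2: binding association and dissociation tracked in real time, fitted to a 1:1 binding model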
# Ab-15 [9] = assay: competition ELISA: peptide titrated against 1 nM Ab-15; competitor plate-bound CD28
# Ab-15 [10] = assay: BLI (Octet): sensor loaded with 200 nM biotinylated peptide, 100 nM Ab-15; remark: listed apart in the source;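 as to t1/2: binding association and dissociation tracked in real time, fitted to a 1:1 binding model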
# Ab-15 [11] = assay: binding ELISA: biotinylated peptide on neutravidin plate, Ab-15 titrated
# Ab-15 [12] = assay: BLI (Octet): sensor loaded with 20 nM biotinylated peptide, 100 nM Ab-15
# Ab-15 [13] = assay: binding ELISA: biotinylated peptide on neutravidin plate, Ab-15 titrated; remark: listed apart in the source
# Ab-15 [14] = assay: BLI (Octet): biotinylated peptide on sensor, Ab-15 titrated, 1:1 model
# Ab-15 [15] = assay: competition ELISA: peptide titrated against 1 nM Ab-15; competitor plate-bound CD28; remark: listed apart in the source
# [16] = target: B3; assay: competition ELISA, peptide titrated against 0.3 nM PSMA Fab on captured biotinylated PSMA
# Ab-15 [17] = assay: BLI (Octet): biotinylated peptide on sensor, Ab-15 titrated, 1:1 model; remark: listed apart in the source
binder,measurement,setting,value
B1,Anti-CD28 Fab signal (phage binding ELISA),[1],0.55
same,Anti-CD28 Fab signal in the presence of CD28 (phage binding ELISA),[2],0.15
B2,binding result,Peptide-274,binds
same,binding result,Peptide-239,binds
same,binding result,Peptide-284,binds
same,binding result,Peptide-227,binds
same,binding result,Peptide-233,binds
same,binding result,Peptide-225,binds
same,binding result,Peptide-267,binds
same,binding result,Peptide-219,binds
same,binding result,Peptide-271,binds
same,binding result,Peptide-268,binds
same,binding result,Peptide-232,binds
same,binding result,Peptide-235,binds
same,binding result,Peptide-277,binds
same,binding result,Peptide-283,binds
same,binding result,Peptide-285,binds
same,binding result,Peptide-282,binds
same,binding result,Peptide-230,binds
same,binding result,Peptide-270,binds
same,binding result,Peptide-263,binds
same,binding result,Peptide-286,binds
same,binding result,Peptide-236,binds
B3,EC50,Peptide-181,3 nM
same,EC50,Peptide-180 [3],33 nM
same,EC50,Peptide-179 [4],5.9 nM
same,EC50,Peptide-179 [5],120 nM
same,Off rate t1/2,Peptide-194,< 1 min
same,Off rate t1/2,Peptide-205,< 1 min
same,Off rate t1/2,Peptide-180 [6],0.75 min
same,Off rate t1/2,Peptide-179 [7],1.09 min
same,Off rate t1/2,Peptide-202,< 1 min
same,Off rate t1/2,Peptide-204,< 1 min
B4,Octet signal (200 nM peptide),Ab-15 [8],1.8
same,IC50,Ab-15 [9],60 nM
same,Octet signal,Ab-15 [10],2.03
same,t1/2,Ab-15 [10],9.8 min
same,EC50,Ab-15 [11],1 nM
same,Octet signal (20 nM peptide),Ab-15 [12],0.509
same,EC50,Ab-15 [13],4 nM
same,Kd,Ab-15 [14],15.1 nM
same,t1/2,Ab-15 [14],15.5 min
same,IC50,Ab-15 [15],200 nM
B5,IC50,[16],17800 nM
B6,IC50,[16],20800 nM
B7,Anti-CD28 Fab signal (phage binding ELISA),[1],0.42
same,Anti-CD28 Fab signal in the presence of CD28 (phage binding ELISA),[2],0.05
B8,Octet signal (200 nM peptide),Ab-15 [8],1.52
same,Kd,Ab-15 [17],16 nM
same,t1/2,Ab-15 [17],9.1 min
same,EC50,Ab-15 [11],2.1 nM
same,IC50,Ab-15 [15],140 nM
B9,Anti-CD28 Fab signal (phage binding ELISA),[1],0.55
same,Anti-CD28 Fab signal in the presence of CD28 (phage binding ELISA),[2],0.13
